For assay [1], the target named is Als1p with the V326N mutation, V5-tagged, displayed on the surface of S. cerevisiae cells (Candida albicans) (UniProt Q5A8T4). The assay can be described thus: single-cell force spectroscopy (AFM); one live yeast cell on a polydopamine-coated tipless cantilever brought repeatedly into contact with another cell on a hydrophobic substrate; PBS, 20 C; 500 adhesion-rupture trials per cell pair.

For assay [2], the target named is Wild-type Als1p (Candida albicans cell adhesion protein Als1p), V5-tagged, displayed on the surface of S. cerevisiae cells (Candida albicans) (UniProt Q5A8T4). The description is as above.

In assay [1], “Als1p with the V326N mutation, V5-tagged, displayed on the surface of S. cerevisiae cells (from UniProt Q5A8T4 18-1238) (natural protein)” showed a % of cell pairs binding of 7%, a mean maximum rupture force per pair of 667 pN and a mean rupture force of 517 pN.

In assay [1], “Wild-type Als1p (Candida albicans cell adhesion protein Als1p), V5-tagged, displayed on the surface of S. cerevisiae cells (from UniProt Q5A8T4 18-1238) (natural protein)” yielded a % of cell pairs binding of 33%, a mean maximum rupture force per pair of 953 pN and a mean rupture force of 483 pN. For the same substance, in assay [2], the % of cell pairs binding is 97%, the mean maximum rupture force per pair came to 3330 pN and the mean rupture force is 1510 pN.

The values above are taken from paper PMC6786869.
